The values below are quoted from earlier work in patent US20230210827A1, “METHODS AND COMPOSITIONS FOR TREATING ANEMIA USING ACTRIIB LIGAND TRAPS AND MTOR INHIBITORS” (Celgene Corporation, priority 2020, published 2023).

Series [1] deals with T1, GDF-11 (Homo sapiens, UniProt O95390).
T1 sequence (O95390 299-407): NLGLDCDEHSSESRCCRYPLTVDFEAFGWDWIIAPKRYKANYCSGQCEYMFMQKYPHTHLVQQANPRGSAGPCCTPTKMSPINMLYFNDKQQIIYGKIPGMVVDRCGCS
The conditions noted are these: ActRIIB variants; background statements.

Series [2] has as its system activin. The conditions noted are these: ActRIIB variants; background statements.

B1: L79D: ActRIIB extracellular domain polypeptide with L79D mutation (protein, listed as Homo sapiens)
chain: MTAPWVALALLWGSLWPGSGRGEAETRECIYYNANWELERTNQSGLERCEGEQDKRLHCYASWANSSGTIELVKKGCWDDDFNCYDRQECVATEENPQVYFCCCEGNFCNERFTHLPEAGGPEVTYEPPPTAPTLLTVLAYSLLPIGGLSLIVLLAFWMYRHRKPPYGHVDIHEDPGPPPPSPLVGLKPLQLLEIKARGRFGCVWKAQLMNDFVAVKIFPLQDKQSWQSEREIFSTPGMKHENLLQFIAAEKRGSNLEVELWLITAFHDKGSLTDYLKGNIITWNELCHVAETMSRGLSYLHEDVPWCRGEGHKPSIAHRDFKSKNVLLKSDLTAVLADFGLAVRFEPGKPPGDTHGQVGTRRYMAPEVLEGAINFQRDAFLRIDMYAMGLVLWELVSRCKAADGPVDEYMLPFEEEIGQHPSLEELQEVVVHKKMRPTIKDHWLKHPGLAQLCVTIEECWDHDAEARLSAGCVEERVSLIRRSVNGTTSDCLVSLVTSVTNVDLPPKESSI
modifications: human ActRIIB precursor protein sequence (A64)
notes: ActRIIB extracellular domain polypeptide with L79D mutation
For the molecule B1, the “affinity for / binding to GDF-11” value in series [1] is on record as “retain GDF-11 binding”. Further, the “affinity for / binding to activin” value in series [2] is “greatly reduced activin binding”.

B2: A64: Fc fusion protein having ActRIIB extracellular sequence with alanine at position 64 of SEQ ID NO:2 (protein)
chain: SGRGEAETRECIYYNANWELERTNQSGLERCEGEQDKRLHCYASWANSSGTIELVKKGCWLDDFNCYDRQECVATEENPQVYFCCCEGNFCNERFTHLPEAGGPEVTYEPPPTAPTGGGTHTCPPCPAPELLGGPSVFLFPPKPKDTLMISRTPEVTCVVVDVSHEDPEVKFNWYVDGVEVHNAKTKPREEQYNSTYRVVSVLTVLHQDWLNGKEYKCKVSNKALPVPIEKTISKAKGQPREPQVYTLPPSREEMTKNQVSLTCLVKGFYPSDIAVEWESNGQPENNYKTTPPVLDSDGSFFLYSKLTVDKSRWQQGNVFSCSVMHEALHNHYTQKSLSLSPGK
modifications: fusion protein comprising a soluble extracellular domain of ActRIIB (A64; SEQ ID NO 3) fused to an Fc domain
Turning to B2, the “affinity for / binding to GDF-11” value in series [1] was “relatively low affinity”. For the same molecule, the “affinity for / binding to activin” value in series [2] is “relatively low affinity”.

B3: R64: Fc fusion protein with an arginine at position 64 of the ActRIIB precursor amino acid sequence (protein)
chain: SGRGEAETRECIYYNANWELERTNQSGLERCEGEQDKRLHCYASWRNSSGTIELVKKGCWLDDFNCYDRQECVATEENPQVYFCCCEGNFCNERFTHLPEAGGPEVTYEPPPTAPTGGGTHTCPPCPAPELLGGPSVFLFPPKPKDTLMISRTPEVTCVVVDVSHEDPEVKFNWYVDGVEVHNAKTKPREEQYNSTYRVVSVLTVLHQDWLNGKEYKCKVSNKALPVPIEKTISKAKGQPREPQVYTLPPSREEMTKNQVSLTCLVKGFYPSDIAVEWESNGQPENNYKTTPPVLDSDGSFFLYSKLTVDKSRWQQGNVFSCSVMHEALHNHYTQKSLSLSPGK
modifications: fusion protein comprising a soluble extracellular domain of ActRIIB (R64; SEQ ID NO15) fused to an Fc domain
Consider B3, for which, in series [1], the “affinity for / binding to GDF-11” value is “low nanomolar to high picomolar range”. Besides, the “affinity for / binding to activin” value in series [2] was “low nanomolar to high picomolar range”.

B4: ActRIIB(20-119)-Fc: ActRIIB-Fc fusion protein containing amino acids 20-119 of SEQ ID NO:14 (SEQ ID NO:18) (protein)
chain: GRGEAETRECIYYNANWELERTNQSGLERCEGEQDKRLHCYASWRNSSGTIELVKKGCWLDDFNCYDRQECVATEENPQVYFCCCEGNFCNERFTHLPEA
modifications: human ActRIIB soluble (extracellular), processed polypeptide sequence with the C-terminal 15 aa deleted (aa 20-119 of SEQ ID NO14)
B4: in series [1], the “affinity for / binding to GDF-11” value is “reduced binding to GDF-11 and activin”. Besides, the “affinity for / binding to activin” value in series [2] is “reduced binding to GDF-11 and activin”.

B5: L79A: ActRIIB extracellular domain polypeptide with L79A mutation (protein, UniProt Q13705 19-137, looked up, variant L79A)
extracellular domain: SGRGEAETRECIYYNANWELERTNQSGLERCEGEQDKRLHCYASWRNSSGTIELVKKGCWADDFNCYDRQECVATEENPQVYFCCCEGNFCNERFTHLPEAGGPEVTYEPPPTAPTLLT
modifications: extracellular domain
notes: ActRIIB extracellular domain polypeptide with L79A mutation
For the molecule B5, the “affinity for / binding to GDF-11” value in series [1] is “reduce GDF-11 binding to a greater extent than activin binding”.

B6: L79E: ActRIIB extracellular domain polypeptide with L79E mutation (protein, UniProt Q13705 19-137, looked up, variant L79E)
extracellular domain: SGRGEAETRECIYYNANWELERTNQSGLERCEGEQDKRLHCYASWRNSSGTIELVKKGCWEDDFNCYDRQECVATEENPQVYFCCCEGNFCNERFTHLPEAGGPEVTYEPPPTAPTLLT
modifications: extracellular domain
notes: ActRIIB extracellular domain polypeptide with L79E mutation
As for B6, the “affinity for / binding to GDF-11” value in series [1] is “retain GDF-11 binding”. The “affinity for / binding to activin” value in series [2] is recorded as “greatly reduced activin binding”.

B7: L79P: ActRIIB extracellular domain polypeptide with L79P mutation (protein, UniProt Q13705 19-137, looked up, variant L79P)
extracellular domain: SGRGEAETRECIYYNANWELERTNQSGLERCEGEQDKRLHCYASWRNSSGTIELVKKGCWPDDFNCYDRQECVATEENPQVYFCCCEGNFCNERFTHLPEAGGPEVTYEPPPTAPTLLT
modifications: extracellular domain
notes: ActRIIB extracellular domain polypeptide with L79P mutation
As to B7, the “affinity for / binding to GDF-11” value in series [1] is “reduce GDF-11 binding to a greater extent than activin binding”.
